Patent publication US20210292396A1

Experiments:
Test in all cases: cell-based or functional assay
[1] = biological target: Env of HIV isolate CNE3 (clade AE) (HIV)
[2] = biological target: Env of HIV isolate 242-14 (clade AG) (HIV)
[3] = biological target: HIV Env of isolate ZM55.28a (HIV)
[4] = biological target: Env of HIV isolate BG505.W6M.C2 (clade A) (HIV)
[5] = biological target: HIV Env of isolate 00836-2.5 (HIV)
[6] = biological target: HIV Env of isolate BR025.9 (HIV)
[7] = biological target: 208-member cross-clade virus panel
[8] = biological target: HIV Env of isolate UG021.16 (HIV)
[9] = biological target: Env of HIV isolate JRCSF.JB (clade B) (HIV)
[10] = biological target: Env of HIV isolate Ce1176.A3 (clade C) (HIV)
[11] = biological target: Env of HIV isolate CE703010217.B6 (clade C) (HIV)
[12] = biological target: Envelope of SVA.MLV
[13] = biological target: Env of HIV isolate X1254.c3 (clade G) (HIV)
[14] = biological target: HIV Env of isolate TZBD.02 (HIV)
[15] = biological target: Env of HIV isolate BR025.9 (clade C) (HIV)
[16] = biological target: HIV Env of isolate SO18.18 (HIV)
[17] = biological target: HIV Env of isolate 191821.E6.1 (HIV)
[18] = biological target: HIV Env of isolate CAP210.E8 (HIV)
[19] = biological target: Env of HIV isolate Q842.d12 (clade A) (HIV)
[20] = biological target: Env of HIV isolate 271-11 (clade AG) (HIV)
[21] = biological target: HIV Env of isolate 6405.v4.c34 (HIV)
[22] = biological target: HIV Env of isolate 3817.v2.c59 (HIV)
[23] = biological target: HIV Env of isolate DU172.17 (HIV)
[24] = biological target: Env of HIV isolate CH038.12 (clade BC) (HIV)
[25] = biological target: HIV Env of isolate 3337.v2.c6 (HIV)
[26] = biological target: Env of HIV isolate 16936-2.21 (clade C) (HIV)
[27] = biological target: HIV Env of isolate ZM197.7 (HIV)
[28] = biological target: HIV Env of isolate UG024.2 (HIV)
[29] = biological target: Env of HIV isolate REJO.67 (clade B) (HIV)
[30] = biological target: Env of HIV isolate CH070.1 (clade BC) (HIV)
[31] = biological target: Env of HIV isolate P0402.c2.11 (clade G) (HIV)
[32] = biological target: HIV Env of isolate 0921.v2.c14 (HIV)
[33] = biological target: HIV Env of isolate 26191-2.48 (HIV)
[34] = biological target: Env of HIV isolate 426c (clade C) (HIV)
[35] = biological target: Env of HIV isolate R3265.c6 (clade AE) (HIV)
[36] = biological target: Env of HIV isolate CNE31 (clade C) (HIV)
[37] = biological target: Env of HIV isolate Q168.a2 (clade AD) (HIV)
[38] = biological target: Env of HIV isolate KER2008.12 (clade A) (HIV)
[39] = biological target: Env of HIV isolate A07412M1.vrc12 (clade D) (HIV)
[40] = biological target: Env of HIV isolate 928-28 (clade AG) (HIV)
[41] = biological target: Env of HIV isolate DJ263.8 (clade AG) (HIV)
[42] = biological target: Env of HIV isolate NKU3006.ec1 (clade D) (HIV)
[43] = biological target: HIV Env of isolate ZM176.66 (HIV)

B1: ePGT121.18 (ePGT121.18.H1 VH and ePGT121.17.L1 VL) (antibody, V domains shown)
VH: QMQLQESGPGLVKPGETLSLTCSVSGASISSSYWSWLRETPGKGLEWIGYTHHSGDTNYAPSLKSRVHLGLHPSKNQVSLSLTSVTAADTAVYYCARTLHGRRIYGVVAFNEYYTYFYWPTWGKGTQVTVSS
VL: SDISVAPGETVRITCGGESIGSRAVQWYQHRPGQAPRLIIYNNQDRPPGIPERFSGSPDIDFGTTATLTISNVEAGDEATYYCHIWDSRRPTNWELGPGTTLTVL
[1]
  IC50, pseudovirus neutralization: > 50 µg/mL
[2]
  IC50, pseudovirus neutralization: 17.3 µg/mL
[3]
  IC80, pseudovirus neutralization (M1): 0.014 µg/mL
  IC80, pseudovirus neutralization (M2): 0.014 µg/mL
[4]
  IC50, pseudovirus neutralization: 0.014 µg/mL
[5]
  IC80, pseudovirus neutralization (M1): > 50 µg/mL
  IC80, pseudovirus neutralization (M2): > 50 µg/mL
[6]
  IC80, pseudovirus neutralization (M1): 0.004 µg/mL
  IC80, pseudovirus neutralization (M2): 0.004 µg/mL
[7]
  % vs Neutralized, IC50 < 0.01 ug/ml: 56%
  % vs Neutralized, IC50 < 0.1 ug/ml: 66%
  % vs Neutralized, IC50 < 1.0 ug/ml: 71%
  % vs Neutralized, IC50 < 10 ug/ml: 76%
  % vs Neutralized, IC50 < 50 ug/ml: 78%
  % vs Neutralized, IC80 < 0.01 ug/ml (M1): 43.8%
  % vs Neutralized, IC80 < 0.01 ug/ml (M2): 38.5%
  % vs Neutralized, IC80 < 0.1 ug/ml (M1): 60.6%
  % vs Neutralized, IC80 < 0.1 ug/ml (M2): 59.6%
  % vs Neutralized, IC80 < 1.0 ug/ml (M1): 65.9%
  % vs Neutralized, IC80 < 1.0 ug/ml (M2): 65.9%
  % vs Neutralized, IC80 < 10 ug/ml (M1): 70.7%
  % vs Neutralized, IC80 < 10 ug/ml (M2): 69.7%
  % vs Neutralized, IC80 < 50 ug/ml (M1): 73.1%
  % vs Neutralized, IC80 < 50 ug/ml (M2): 72.6%
  Geometric Mean (IC50): 0.0081 µg/mL
  Geometric Mean IC80 (M1): 0.0177 µg/mL
  Geometric Mean IC80 (M2): 0.0202 µg/mL
  Median IC50: 0.003 µg/mL
  Median IC80 (M1): 0.007 µg/mL
  Median IC80 (M2): 0.008 µg/mL
  Total VS Neutralized, IC50 < 0.01 ug/ml (viruses of 208): 116
  Total VS Neutralized, IC50 < 0.1 ug/ml (viruses of 208): 137
  Total VS Neutralized, IC50 < 1.0 ug/ml (viruses of 208): 148
  Total VS Neutralized, IC50 < 10 ug/ml (viruses of 208): 159
  Total VS Neutralized, IC50 < 50 ug/ml (viruses of 208): 162
  Total VS Neutralized, IC80 < 0.01 ug/ml (M1) (viruses of 208): 91
  Total VS Neutralized, IC80 < 0.01 ug/ml (M2) (viruses of 208): 80
  Total VS Neutralized, IC80 < 0.1 ug/ml (M1) (viruses of 208): 126
  Total VS Neutralized, IC80 < 0.1 ug/ml (M2) (viruses of 208): 124
  Total VS Neutralized, IC80 < 1.0 ug/ml (M1) (viruses of 208): 137
  Total VS Neutralized, IC80 < 1.0 ug/ml (M2) (viruses of 208): 137
  Total VS Neutralized, IC80 < 10 ug/ml (M1) (viruses of 208): 147
  Total VS Neutralized, IC80 < 10 ug/ml (M2) (viruses of 208): 145
  Total VS Neutralized, IC80 < 50 ug/ml (M1) (viruses of 208): 152
  Total VS Neutralized, IC80 < 50 ug/ml (M2) (viruses of 208): 151
[8]
  IC80, pseudovirus neutralization (M1): 0.02 µg/mL
  IC80, pseudovirus neutralization (M2): 0.019 µg/mL
[9]
  IC50, pseudovirus neutralization: 0.003 µg/mL
[10]
  IC50, pseudovirus neutralization: 0.003 µg/mL
[11]
  IC50, pseudovirus neutralization: 0.002 µg/mL
[12]
  IC80, pseudovirus neutralization (M1): > 50 µg/mL
  IC80, pseudovirus neutralization (M2): > 50 µg/mL
[13]
  IC50, pseudovirus neutralization: 0.002 µg/mL
[14]
  IC80, pseudovirus neutralization (M1): 0.004 µg/mL
  IC80, pseudovirus neutralization (M2): 0.006 µg/mL
[15]
  IC50, pseudovirus neutralization: 0.001 µg/mL
[16]
  IC80, pseudovirus neutralization (M1): 0.005 µg/mL
  IC80, pseudovirus neutralization (M2): 0.007 µg/mL
[17]
  IC80, pseudovirus neutralization (M1): 0.095 µg/mL
  IC80, pseudovirus neutralization (M2): 0.105 µg/mL
[18]
  IC80, pseudovirus neutralization (M1): 0.078 µg/mL
  IC80, pseudovirus neutralization (M2): 0.106 µg/mL
[19]
  IC50, pseudovirus neutralization: 0.002 µg/mL
[20]
  IC50, pseudovirus neutralization: > 50 µg/mL
[21]
  IC80, pseudovirus neutralization (M1): 0.004 µg/mL
  IC80, pseudovirus neutralization (M2): 0.005 µg/mL
[22]
  IC80, pseudovirus neutralization (M1): 2.58 µg/mL
  IC80, pseudovirus neutralization (M2): 6.79 µg/mL
[23]
  IC80, pseudovirus neutralization (M1): 0.005 µg/mL
  IC80, pseudovirus neutralization (M2): 0.005 µg/mL
[24]
  IC50, pseudovirus neutralization: 0.0008 µg/mL
[25]
  IC80, pseudovirus neutralization (M1): 1.25 µg/mL
  IC80, pseudovirus neutralization (M2): 1.43 µg/mL
[26]
  IC50, pseudovirus neutralization: 0.002 µg/mL
[27]
  IC80, pseudovirus neutralization (M1): > 50 µg/mL
  IC80, pseudovirus neutralization (M2): > 50 µg/mL
[28]
  IC80, pseudovirus neutralization (M1): > 50 µg/mL
  IC80, pseudovirus neutralization (M2): > 50 µg/mL
[29]
  IC50, pseudovirus neutralization: 0.731 µg/mL
[30]
  IC50, pseudovirus neutralization: 0.0008 µg/mL
[31]
  IC50, pseudovirus neutralization: 0.002 µg/mL
[32]
  IC80, pseudovirus neutralization (M1): 1.03 µg/mL
  IC80, pseudovirus neutralization (M2): 1.49 µg/mL
[33]
  IC80, pseudovirus neutralization (M1): 0.008 µg/mL
  IC80, pseudovirus neutralization (M2): 0.013 µg/mL
[34]
  IC50, pseudovirus neutralization: 0.065 µg/mL
[35]
  IC50, pseudovirus neutralization: > 50 µg/mL
[36]
  IC50, pseudovirus neutralization: 0.015 µg/mL
[37]
  IC50, pseudovirus neutralization: 2.93 µg/mL
[38]
  IC50, pseudovirus neutralization: 0.003 µg/mL
[39]
  IC50, pseudovirus neutralization: 0.003 µg/mL
[40]
  IC50, pseudovirus neutralization: 0.076 µg/mL
[41]
  IC50, pseudovirus neutralization: 0.002 µg/mL
[42]
  IC50, pseudovirus neutralization: > 50 µg/mL
[43]
  IC80, pseudovirus neutralization (M1): 0.091 µg/mL
  IC80, pseudovirus neutralization (M2): 0.106 µg/mL
